System: PBMC of subjects with JIA
Assay: T cell proliferation assay, PBMC of subjects with JIA
Format: cell-based, human
Conditions: majority of JIA subjects; SI of 2 or higher positive

B1: whole human hsp60: whole human hsp60 protein (protein)
chain: MLRLPTVFRQMRPVSRVLAPHLTRAYAKDVKFGADARALMLQGVDLLADAVAVTMGPKGRTVIIEQGWGSPKVTKDGVTVAKSIDLKDKYKNIGAKLVQDVANNTNEEAGDGTTTATVLARSIAKEGFEKISKGANPVEIRRGVMLAVDAVIAELKKQSKPVTTPEEIAQVATISANGDKEIGNIISDAMKKVGRKGVITVKDGKTLNDELEIIEGMKFDRGYISPYFINTSKGQKCEFQDAYVLLSEKKISSIQSIVPALEIANAHRKPLVIIAEDVDGEALSTLVLNRLKVGLQVVAVKAPGFGDNRKNQLKDMAIATGGAVFGEEGLTLNLEDVQPHDLGKVGEVIVTKDDAMLLKGKGDKAQIEKRIQEIIEQLDVTTSEYEKEKLNERLAKLSDGVAVLKVGGTSDVEVNEKKDRVTDALNATRAAVEEGIVLGGGCALLRCIPALDSLTPANEDQKIGIEIIKRTLKIPAMTIAKNAGVEGSLIVEKIMQSSSEVGYDAMAGDFVNMVEKGIIDPTKVVTALLDAAGVASLLTTAEVVVTEIPKEEKDPGMGAMGGMGGGMGGGMF
modifications: Homo sapiens hsp60
notes: whole human hsp60 protein
T cell proliferative response to whole hsp60: positive T cell proliferative response

Reference: US7608683B2, “Stress proteins and peptides and methods of use thereof” (The Regents of the University of California, priority 2000, dated 2009)
